Measurements taken from a protein production outcome set (Wang et al. 2014).

Assay: label from the status in PepcDB records

MFMFRNCAVLLVIGSICCFIYGLFRLHVEVEPNACRMTYMFGEPMFAKVGVRDGDQYPNYALYYYYEGLRQPLDPLKRRMTGAPVIFVPGNAGSYKQVRSLASVALRKAMSNDAGIHLDYYTIDYDEELSALYGGYLHRQQSYLKLCIRTILSIYEGRTEQPSIVLIGHSMGGKLAQSVLVDPAIGQHINTIISISTPLDQPVLNLDTQLEEFYDQTDAVLSKLRTATVPTMTTNVCDSLHQRPPSVQRMASQDSSARLDNVLLISTGGGNRDLLVRPGLTSSRFNDLHAMTSAIPKVSLSCDHLSAVWCLQFMQAINRFLFSVAYVREDRSSIAFGTNKQRNLQTALSTFVKPRRRQQNTVRFGAAGNWHEERRLVINKYFTNGLKGTFFDLIGLQRQERYRKAAIEALNVDDEDWLFGCSAEDNNKTGQLYCEKATSLMHLVQWLPNEDREPRSIALLDLHNLRKTYVHWTHLLVRLPPSAKRIGYNLDIYDPKERVTDIKMPRWYTMAKLPLINETLQGTLHHRVRISEMVDPYQSIRVIVEPLQCINPEYRVTARICVPWAAGFERFQTLKSFDQKPQLYVNVPTLVPRHYNTTLNPVTLELYLDPTCRYRISYEYSYSSALSRLVLEFYGWLPAHLVCVLLIVLRKQVETFYDVGTFRSLRPYVGYLQYTSLYIVTACRLLKKLIISSRVFPEPEPLDYSINVSIVIHCAAIALSLLATLGTWLALTLYGNAFYRLALRITRLSQATSNVMISIMTHLPITYGILTIATAMGTCSGVGLLLAFVFYFLMLSNAYKDYLEDFLWQKAANLVRGKPSAVTEQEDATEEQNEEQNALKQNDEQKQQQQEEEEPEACVGLQNFSFHVTLLLMLFVQLLLNAPSSLAWLRSRRHGINLPDPSLYPSIVVLASLSLLLQLRAPQKCQGYWMLSIAFYILAGVVLLYCQAAIYRLTYVIAGAFALLSAHQSLWILWGRVSRV
protein production: failed

QQKNMENKTLNENIPEMIISLEKEALASTDPMAFVELSDTDVIYFDPSLETKIEGLEQLRTYYKGMQLPPADHFDMIRPVVQVAQNIAVLTFNLDSYLSDKVIKWNCTEVYRRNPDNQWKIIQTHWSYVKPLD
protein production: not failed

KAFLEDMKKYAETFLEPWFKAPNKGTFQIVYKSRNNSHVNREEVIRELAGIVCTLNSENKVDLTNPQYTVVVEIIKAVCCLSVVK
protein production: not failed

MAPSSSTFKQVADDWLKQYANDVKVSSVRAREKAIQHAIERFNTKPIQTIKKHDYQRFVDDISAQYSKNYVDSIVASTNMIFKYAYDTRLIKAMPSEGIKRPKKKLEHHHHHH
protein production: not failed

MMNGENMDKQTVIGFVVLFCVLELVFYLKKLYQSMALTLAVFGIFSLLFFLLYIPVLSKKAVPYVINYFKPPHQRVREIKVGSDETTDNSIIRLKEKAKTLHPDEGNRISGRSSNSFKDSASCIITIVDDSN
protein production: failed

MMSEAIIHGIILAFGLIIPLGVQNVFVFNQGASQPNIWRAAPVVLTASICDTLLILIAVQGVSLVLLTFSWLTNSLYIIGFFFLLYMGFVIWRSNPSNDVKQEKSMPLKKQILFAASVSLLNPHAILDTIGVIGTNSIQYIGSEKWAFTLATIIVSWIWFISLALAGKFLKRLDSTGKTILLLNKFSGLIIWGVALYMLKQVIYS
protein production: failed

MAKKQLSLTRLSFPIFWDLLSKYLTVIINTAMVSHYSNFLVGAMGAGNQILDLFITIFSFLSVGCSVLIAQAIGAKDHVLARKVIHQSLFLNALLGFVCGVLILWHGEYLLYLLKIPQELLKDSEIYLHMLAICLFFDAIGIVLAAIVRVYNMAYWVMFIGFLMDIVVICGNYYVLHYTKSELFGIGLSNIFARIVAIVALFAILFYKLKIHLKIKEMIKLEKEVLKKVLNIGGFSAGENLLWIVQYTIAFAFVASLGEASLSVQTIYFQISMLIMLIGQATSIANEIIVGKLIGARYENIAYKHAWRALYFSVIASALVALLNYLCQDFTMQILGLKEELKNLMIPLFALSIFLEISRTFNIVMVNSLRASGDAKFPFFSGLVFMMGVSLPVGYVLCFHFNLGILGVWIGFCADEFLRGMVNSYRWKSKKWQGKALV
protein production: failed

MISRNLKIYFRDRTAVFMSLLTVLIIIGLYAIFLGNNMEEMFKQASGKTVGIQELVNTWVIAGILSITPVTVSLAVFSLKVHDEELSIARSFAITSASRWRIVISYIVSGLVASFLLSVITLFVGEMYIWLTGGEFLPFESWIRLIGIILINVLCCSSIMFFIASLVKKASAFSSVSTIVGTVIGFIAGIYLPIGSLPAAVQTAMKCFPFTYGASTIREIMTKEPLKEVFAGNTGAMDATKEMIGITIYWGDKTVTTGLSLLILSAFAVVFGVLSVILMKRQTK
protein production: failed

IRSIWENNGFGLMSSKTMTDFDYWISDFEKIGASQKEAEQLIVKAIEIAIDANARNYNYINAILKDWEQRGFKSVEEREA
protein production: not failed

MFSFVQMTGCLLPLTALTPLSHCTRPRNALALLQSSWKGGSLAISLVRNAVAAVLAAALSVPVSADVGAGSYLAARQAVFANDFSSAADYFARALAIDPQNPALMENMVLSQLALGRLEQAYPVAQLMQEAGLQSQVANIAIVVHLLSEERYQEVLDRDPEMRGVGKLVDGLVAGWAEMGLGSVARALAQFDKVADEAGLRGFANYHKAMALASVGDFEGAEALFAADDGALTTISRRAALARAEILSQLDRNDQALEMLADVFSGGFDPALSDIADRLVAGETLPFSLVRSVRDGLAEVFFTIGAALNGEASDDFTLVYIRSAVHLRPDHIDALLMTAGLLESLGQYDLAVATYKQIPNDSPDYHAAELGRAEALRRSAKPDAAIEVLEKLAKDYPSQPQAFVALGDLQRQQEAYDRAATAYDKALQLTDPGAPNMWFLHYARGICHERLGNWPGAEADFRAALELNPDQPQVLNYLGYSLVEKQEKLDEALDLIERAVAARPDSGYIVDSLGWVLFRLGRYDEAVGHMERAVELMPVDPVVNDHLGDVLWAVGRVREAEFQWRRALSFIKADDTDGEADPERIRRKLEIGLDRVLAEEGVPPLKVANGD
protein production: failed

MVTIPIFLAIIGATMMVVVWSAKQTKSAADFYTAGGGITGTQNGWAIAGDYMSAASFLGISGIISLYGYDGFMYSVGWLVAYITVLLIVAEPCRNAGKFTLGDILSFRTEPKSVRAAAAISTVAVSTFYLTAQMVGAGKLMQLLLGIPYKTAVIGVGILMVGYVVFGGMTATTWVQIIKAGLLMSGAALLSVLVGLKSGMSPFQFFNDIATSPNIIEHVQKVVLKDPVAVAGFDYGQRFLEPGLFLKNPLDQISLGMALVLGTAGMPHILMRFFTVPTAQAARKSVIIAMFIIGSFYILTTLLGFGAAIHVTPQSIMNVDKGGNMAAMMLAQQLGGDIHPFLGDLLLAFLCAVAFATILAVVSGLVLAASAAIAHDIYVNVIKGGHADQHEQVKAARITSFVVGACGIAIGIAAEKQNVAHLVALAFAVAASGNLPVVVLSLFWKKFNTAGVIAGLVTGTVVSIALVMVSPNMTYPKKVAEDAQKVVVKLEEKQAGGAVLTEKEMKDLGKAKADYEKNKDGKSFLGLDKPLFALKNPGVVSIPLGFIAAVIAALAFPSRRSEEMFDELYVRQNTGIGIAKAVDH
protein production: failed

MARIIVKNGYLKGGSEKTSAHLNNLVKYIATRDGVEKIKNGRELWHATKKQQTLIGEILREFPDAKEMFEYEDYLANPNRENASEFITIALEQHLDKIGDREKYLDYIANRPRVEKFESHGLFTAGDAPLVLSQVAEEVAAHTGNVWTPIISLRREDAARLDYDNAAAWKALLSSKAMELAENLKIHPDHLKWYGAFHNESHHPHIHMVCYSTDPREGYLTKQGIRKMKSSLANEIFRQELIPLYGEKTQRRDELKEQSAESLRELIRQIKGGVLVSERMEQLLTHLAERLQTVSGKKQYGYLKPELKNVVDEIVDDLAQDSRVSEAYRMWWETKGRIESIYTETPSEPPPLSHCDDFKPIRNMVIQEALLIGNMTFEEPASVETALPEPENDLEMSLSDIEDEEDQEPIDDSVGRPSSDEASAGKESSDSWWTEEYRQAKQYLCGDEDAGVPQDFRKAHELFMAEADKNNPLALYDLGRMSADGLGCEADADAAYGWYEKALVVLHAAEEAKPWKYTEYRIGKMYAAGLGAEQDYLQASDWLTLSADKKYKYAQYSLGGLYYHGKGVEQDHVTAFALYTRSADQSFPYASFELGKMLRDGIGCAKNQQDSDRRFKEAFLGFVSLEEQSHDDKLQYRLGWMLLNGIGTDKDEARAKEYFEKAASVGNPFACYQLAKFILSDEKAQPQDVEKALGYLRKAVEAENPYAAYFLGKLYEKGQHVPQNTAEAMRLYTLSAEQDNEFAAYRLGKLYLDGDGVLKDVESAIRWLTFAADRKNQFAEYALGVLYFKGEDIPKDVPKALEYLKRSAGQGNQFAQYRLGKIYLMGEDVPKDIQTALQFLTAAAEQGNQYAQYTLGKLYLIGKDVPKDKETAVRWFTLSAAQGNIYAQFFLDHIDNFKDPSVLLAGTRLLHHMSRIFADNAPPLKLPGQRTDRKLLRKLREKKQAQGHARDDHEQTMSL
protein production: failed

MNKKKFENLPKWNNFALFNFLAKDKENSLEVMEASRGFAVPGIVATNYETAEEAANVVKELQTTAPVISVGLGGGGDWQNWRDVLHIARLAPNSHINQPIETAGLTNDLLPETYTNALVRPTGKVGIVKLSSGDEITAEEAVDYCLSANIPSIKFMSIEGTKYLDELVYLTKVAAEKGIYGIEPAGGIGAENILEITTAIKTTGIPFFMPHIFGKTIDKATGRTKPEEIEKIFAALEGK
protein production: failed

SATERADSADFRTIIRNKIPLMDVRAPVEFGKGAFDLSINYPLMNNDERADVGICYKQNGQEAAIKLGNALVSGQSKARRLTQWQTFARENPQGYLYCFRGGLRSQTVQRWLKESGINYPLITGGYKALRQFLLNELEQLALH
protein production: failed

RTVAQNASETTVSYDTDTAVLSEADVLRIALSENATVKVADMDVRKQEYARRAARADLFPKVDLNGVYSHTLKKQVLYIDMPGFSSSEGIEMGRTHNTQGGVNVSMPLVSAQLWKSIAMTGEQLDLALEKARSSRIDLVAEVKKAYLSVLLAEDSYGVFKRSYDNALANYKNISDKFDRGLVAEYDKIRANVQVRNIEPNLLQAQNSVALALWQLKVLMSMEVETPIRLSGSLSDYKEQVYTGYFAADTLISNNSSLRQLDIQRRLAVSADKLNKYSFLPTLNLGGQYTYSLNSNDIKFWGEGQR
protein production: not failed

MSNEHQLLVGLLKKLKDDALILPTLPEVAMRVQEVVGRPDSSLKQVAEIIGQDAAISARIIKVANSALYSRGVPAENINSAVTRIGLTQIKSIATSVAMEQLFISTNEMVWEVMDEVWRTSIDVTAAACSLLQIYNKKHPGSGLNYDTLTLAGLVHNIGALPVLTEAEAHPEMFTTIEHLRSLVRKMQGPIGRAVLKSWDFAPEVMEVVERWADLPYLGDHVSYLDFIRAAAFYTGELRAGNELEQRLDVFVKRGLPVSPEDLGSDAFLDSYHSIKASYE
protein production: not failed

YVTSQIHAKGSDLAKLMQIAALKGNEEVLDVATGGGHVANAFAPFVKKVVAFDLTEDILKVARAFIEGNGHQQVEYVQGDAEQLPFTDERFHIVTCRIAAHHFPNPASFVSEAYRVLKKGGQLLLVDNSAPENDAFDVFYNYVEKERDYSHHRAWKKSDWLKMLEEAGFELEELHCFHKTFIFEDWCDRMNVTTEKKQELSDFIKSKPTEYYQKFKIVVEDGRVYSFRGESILMKARKPTVKNKGSS
protein production: not failed

MNRSNQDITQPTAIIAVVGVGAEQGIGAAVCRRFAQEKFKVYVAGRTLNKVEKVAAAIHRQGGQAVAYVLDAENEQQLQTLFDHLNDQPEALAAVIHNVGGNIPSIFLQSSLKFFSQMWRSTFLSSVLVAQRSLSIFQKQQQGTLIFTGASASLRGKPFFAAFSMGKSALRSYALNLAELYRSQNIHVAHVMVDGMVDGDRVNKALWGLGRLARLTRGTGGLNIDAIAENYWMLYQQNVDLWTHELDLRPYQEKF
protein production: failed

MFLKRIELQREKVLSFQEYPFSIPAIKHFQRLELKSRVTFFVGENGSGKSTLLEAIADKCEFNTAGGGRNNYYEVDASESALGDYIRLSWLPKVSNGFFLRAESFYHFASHVDEVDARHAYGGRSLHHQSHGEAFLSLFANRFNRKGIYLLDEPEAALSPRRQLSFLAILHDLVSSGDSQFIIATHSPILLGYPHATILSFDHGTIEETTYEQTEHYQLTRYFLENRERMLRELLGELEHHHHHH
protein production: failed
